Measurements published in IntAct's records for PubMed 20389280.

B1: Kelch-like protein 20 (Homo sapiens), Q9Y2M5 (parent)
chain: MEGKPMRRCTNIRPGETGMDVTSRCTLGDPNKLPEGVPQPARMPYISDKHPRQTLEVINLLRKHRELCDVVLVVGAKKIYAHRVILSACSPYFRAMFTGELAESRQTEVVIRDIDERAMELLIDFAYTSQITVEEGNVQTLLPAACLLQLAEIQEACCEFLKRQLDPSNCLGIRAFADTHSCRELLRIADKFTQHNFQEVMESEEFMLLPANQLIDIISSDELNVRSEEQVFNAVMAWVKYSIQERRPQLPQVLQHVRLPLLSPKFLVGTVGSDPLIKSDEECRDLVDEAKNYLLLPQERPLMQGPRTRPRKPIRCGEVLFAVGGWCSGDAISSVERYDPQTNEWRMVASMSKRRCGVGVSVLDDLLYAVGGHDGSSYLNSVERYDPKTNQWSSDVAPTSTCRTSVGVAVLGGFLYAVGGQDGVSCLNIVERYDPKENKWTRVASMSTRRLGVAVAVLGGFLYAVGGSDGTSPLNTVERYNPQENRWHTIAPMGTRRKHLGCAVYQDMIYAVGGRDDTTELSSAERYNPRTNQWSPVVAMTSRRSGVGLAVVNGQLMAVGGFDGTTYLKTIEVFDPDANTWRLYGGMNYRRLGGGVGVIKMTHCESHIW

Variants of: B1
Details: with cul3_human CUL3, Q13618

effect of a mutation on the interaction	Variant
disrupting interaction	I111A
disrupting interaction	C146A
disrupting interaction	L148A
disrupting interaction	L150A
disrupting interaction	V109A
